The target in assay [1] is wildtype Chinese hamster BiP, unmodified (BiP^WT) (UniProt G3I8R9). In words: BLI. The settings on record: trace 3; association in presence of ATP; signal at end of association step (20 min); parent is trace 1; parent: est. 4.2; read off a plot.
Assay [2] deals with AMPylated wildtype Chinese hamster BiP (BiP^WT-AMP) (UniProt G3I8R9). In words: BLI. The conditions noted are these: trace 6; AMPylated BiP WT; association in presence of ATP; signal at end of association step (20 min); parent is trace 4; parent: est. 0.95; read off a plot.
The target in assay [3] is wildtype Chinese hamster BiP, unmodified (BiP^WT) (Chinese hamster (Cricetulus griseus)) (UniProt G3I8R9).
Assay [4] concerns the target T1, Chinese hamster BiP T229A-V461F double mutant (BiP^T229A-V461F), unmodified (Chinese hamster (Cricetulus griseus), UniProt G3I8R9 19-654, T229A | V461F).
T1 construct: BiP (Grp78), Chinese hamster (Cricetulus griseus); Construct limits: see note of m1; source: E. coli M15, purified (Ni-NTA)
In words: BLI; Octet RED96, streptavidin sensors saturated with biotinylated GST-J (no P15); BiP^T229A-V461F at different concentrations in solution, 1 mM ATP in baseline, association and dissociation; HKM with 0.05% Triton X-100, 24°C; KD from steady state binding signals; binding sensitive to increasing KCl. The settings on record: both partners purified. Background: BLI is a label-free optical method that tracks binding on a fibre tip over time.

The target in assay [5] is T2, AMPylated Chinese hamster BiP T229A-V461F double mutant (AMPylated BiP^T229A-V461F) (Chinese hamster (Cricetulus griseus), UniProt G3I8R9 19-654, T229A | V461F, AMP on threonine 518 (T518-AMP)).
T2 construct: BiP (Grp78), Chinese hamster (Cricetulus griseus); Construct limits: see note of m1; source: E. coli M15, purified (Ni-NTA)
Described as above. The conditions noted are these: both partners purified.

The target in assay [6] is T3, AMPylated wildtype Chinese hamster BiP (BiP^WT-AMP) (Chinese hamster (Cricetulus griseus), UniProt G3I8R9 19-654, AMP on threonine 518 (T518-AMP)).
T3 construct: BiP (Grp78), Chinese hamster (Cricetulus griseus); Same construct as m1, AMPylated at high stoichiometry (intact mass spectrometry); Construct limits: see note of m1; also called BiP-AMP; AMPylated BiP; source: E. coli M15, purified (Ni-NTA)
In words: BLI; Octet RED96, streptavidin sensors with biotinylated GST-J (to 0.4 nm) then saturated with biotinylated P15; BiP 15 µM in HKM with 0.05% Triton X-100 and 2 mM ATP for association; dissociation in protein-free solution with 2 mM ADP or ATP; 24°C; one-phase decay fit of the dissociation. The settings on record: both partners purified.

For assay [7], the target named is T4, wildtype Chinese hamster BiP, unmodified (BiP^WT) (Chinese hamster (Cricetulus griseus), UniProt G3I8R9 19-654).
T4 construct: BiP (Grp78), Chinese hamster (Cricetulus griseus); also called Grp78; haBiP; source: E. coli M15, purified (Ni-NTA); unmodified control from mock AMPylation reactions without enzyme
Described as above. The settings on record: both partners purified.

Assay [8] concerns the target T5, Chinese hamster BiP T518E mutant (BiP^T518E) (Chinese hamster (Cricetulus griseus), UniProt G3I8R9 19-654, T518E).
T5 construct: BiP (Grp78), Chinese hamster (Cricetulus griseus); Mimics aspects of AMPylation; Construct limits: see note of m1; source: E. coli M15, purified (Ni-NTA)
Described as above. The settings on record: both partners purified.

Bounds are passed on as bounds.

What is called Kd is the concentration at which binding is half-saturated. In general, koff refers to the rate constant with which the complex falls apart. High values mean fast dissociation, low ones slow dissociation.

T5 sequence (G3I8R9 19-654 T518E): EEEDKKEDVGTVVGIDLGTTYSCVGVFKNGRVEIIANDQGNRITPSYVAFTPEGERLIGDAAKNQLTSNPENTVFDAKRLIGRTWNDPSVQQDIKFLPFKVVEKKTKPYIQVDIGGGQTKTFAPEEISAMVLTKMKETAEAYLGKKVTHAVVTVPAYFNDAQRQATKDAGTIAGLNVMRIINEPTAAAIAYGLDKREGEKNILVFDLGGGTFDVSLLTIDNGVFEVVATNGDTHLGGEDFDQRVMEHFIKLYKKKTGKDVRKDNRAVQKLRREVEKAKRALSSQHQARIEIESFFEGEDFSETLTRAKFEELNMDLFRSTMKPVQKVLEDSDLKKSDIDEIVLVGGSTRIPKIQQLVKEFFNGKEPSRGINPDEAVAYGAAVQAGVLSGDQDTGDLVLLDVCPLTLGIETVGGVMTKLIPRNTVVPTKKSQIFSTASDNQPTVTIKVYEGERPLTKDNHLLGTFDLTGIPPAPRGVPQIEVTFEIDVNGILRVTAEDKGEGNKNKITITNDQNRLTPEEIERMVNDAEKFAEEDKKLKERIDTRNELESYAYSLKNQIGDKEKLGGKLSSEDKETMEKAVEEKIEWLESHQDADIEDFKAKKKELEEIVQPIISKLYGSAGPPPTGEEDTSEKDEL
T2 sequence (G3I8R9 19-654 T229A/V461F): as the sequence (G3I8R9 19-654 T518E) above, with T211A, V443F, E500T counted along it
T1 sequence (G3I8R9 19-654 T229A/V461F): as the sequence (G3I8R9 19-654 T518E) above, with T211A, V443F, E500T counted along it
T3 sequence (G3I8R9 19-654): as the sequence (G3I8R9 19-654 T518E) above, with E500T counted along it
wildtype Chinese hamster BiP, unmodified (BiP^WT) (Chinese hamster (Cricetulus griseus)), sequence (G3I8R9 19-654): as the sequence (G3I8R9 19-654 T518E) above, with E500T counted along it
T4 sequence (G3I8R9 19-654): as the sequence (G3I8R9 19-654 T518E) above, with E500T counted along it

Turning to “biotinylated GST-J^WT and biotinylated P15 substrate peptide co-immobilized on a streptavidin BLI sensor (from UniProt Q91YW3) H422Q”, the response in assay [1] stood at 0.14 nm; in assay [2] it was 0.1 nm.
Turning to “wildtype J-domain of mouse P58/ERdj6 (residues 384-470) fused to GST (GST-J^WT) (from UniProt Q91YW3 384-470) (domain or fragment)”, in assay [3], the rate of ATP hydrolysis by BiP in a single-turnover ATPase assay with wildtype GST-J (2 µM) compared with non-functional GST-J^QPD was > 4 fold.

B1: wildtype J-domain of mouse P58/ERdj6 (residues 384-470) fused to GST (GST-J^WT) (domain or fragment, UniProt Q91YW3 384-470, looked up)
chain: QRLLKQSQKRDYYKILGVKRNAKKQEIIKAYRKLALQWHPDNFQNEEEKKKAEKKFIDIAAAKEVLSDPEMRKKFDDGEDPLDAESQ
modifications: biotinylated with Biotin-maleimide for the BLI experiments (a fraction of the purified protein); not biotinylated in pull-down, SEC and ATPase assays
notes: J-domain of P58/ERdj6, mouse, residues 384-470; also called model J-domain
Regarding B1, the Kd in assay [4] and in assay [5] was ~14 µM in each case.

B2: biotinylated GST-J^WT and biotinylated P15 substrate peptide co-immobilized on a streptavidin BLI sensor (other, mouse)
chain: B1 chain
peptide: ALLLSAPRRGAGKK
modifications: biotinylated with Biotin-maleimide | biotinylated on the C-terminal lysine
notes: J-domain of P58/ERdj6, mouse, residues 384-470; P15 model BiP substrate peptide (Misselwitz et al., 1998); Not a complex: two separately biotinylated ligands on one sensor surface (GST-J to ~0.4 nm signal, then saturation with P15); the signal is not divided among them; also called sensors carrying GST-J^WT and P15; GST-J^WT-coupled sensors; source: GST-J^WT: purified GST-fusion protein, …
Take B2: the koff in assay [6] came out at 0.00329 s⁻¹; in assay [7] it was 0.00079 s⁻¹; in assay [8], 0.00165 s⁻¹.

Source of the values: paper PMC5667935, “AMPylation targets the rate-limiting step of BiP’s ATPase cycle for its functional inactivation” (eLife, 2017).
